We go through three compounds from paper PMC8887654 (ACS infectious diseases, 2022).

Where “and” joins values, the source holds several entries; their conditions need not be identical. Equal values may be shown once.

Series [1] relates to RPTEC. To be noted: human.
Series [2] has as its system subgroup 2b PLpros. Put plainly: PLpro inhibition IC50, text summary over all three PLpros. To be noted: read-out: IC50 values; text summary for the most potent inhibitors. The format is biochemical.
Series [3] relates to BEAS-2B cells. To be noted: human.
For series [4], the system named is BtSCoV-Rf1.2004 PLpro. It counts as biochemical.
The subject of series [5] is SARS-2 PLpro. Particulars: cited from earlier work.
Series [6] relates to MHV PLP2. To be noted: cited from earlier work.
In series [7] the test system is SARS PLpro. To be noted: cited from earlier work.
The test system of series [8] is MERS PLpro. To be noted: cited from earlier work.

What is called IC50 is the point on the concentration scale where inhibition reaches its midpoint. In the case of `Cc1ccc(N)cc1C(=O)N[C@H](C)c1cccc2ccccc12` [GRL0617, 5-Amino-2-methyl-N-[(R)-1-(1-naphthyl)ethyl]benzamide], the “CC50 relative to IC50” value in series [1] and in series [3] was “more than five times the IC50” in each case. In series [2], the IC50 is < 10 µM.

Broadly, the Km is the substrate concentration at which the rate is half of its maximum. “Ubiquitin–7-amino-4-methylcourmarin [Ub-AMC]”: the Kcat was 0.232 ± 0.0067 s⁻¹ in series [4]; 0.167 ± 0.013 s⁻¹ in series [5]; 0.83 ± 0.0483 s⁻¹ in series [6]; 1.26 ± 0.135 s⁻¹ in series [7]; 0.313 ± 0.02 s⁻¹ in series [8]. Moreover, the Km in series [4] is 14.3 ± 0.9 µM; in series [5], 7.9 ± 1.4 µM; in series [6], 1.3 ± 0.2 µM; in series [7], 50.6 ± 7.4 µM; in series [8], 14.3 ± 2 µM.

On to “human ISG15-7-amino-4-methylcourmarin [ISG15-AMC]”, for which, in series [4], the “observed rate (no maximum turnover calculable)” value is 595 min⁻¹. Further, the Kcat in series [5] was 0.667 ± 0.03 s⁻¹; in series [7] it was 7.27 s⁻¹ and 7.27 ± 0.667 s⁻¹; in series [8], 0.543 ± 0.03 s⁻¹. Moreover, the Km in series [5] is 3.9 ± 0.5 µM; in series [7], 15.1 ± 2.4 µM; in series [8], 3.3 ± 0.5 µM.
